From patent publication US12227570B2, “Anti-CEACAM6 antibodies and methods of use” (Singapore Health Services PTE LTD, priority 2016, dated 2025)

Assays:
Assay type in all cases: cell-based
[1] = system: normal cell lines (fibroblasts, endothelial and epithelial cells) and primary PBMCs; experiment: Flow cytometry binding on normal cells
Experimental: Cells were harvested as single cell suspensions using trypsin. 1E5 cells were used per sample, and incubated with 100 μl of mAb culture supernatant for 30 min. Cells were then washed with 1% bovine serum albumin in PBS, and further incubated with 100 μl of goat anti-mouse antibody fluorescein isothiocyanate (FITC)-conjugated (1:500, DAKO, Denmark) for 15 min at 4° C. in the dark. Cells were again washed and resuspended in 200 μL of 1% BSA/PBS for analysis on Guava® easy Cyte 8HT Benchtop Flow Cytometer (Merck Millipore, USA). For interrogation of […] binding, cells were fixed with 4% PFA/PBS (Affymetrix, USA) at room temperature for 10 min, washed in PBS, and permeabilised with 0.1% triton/PBS for 5 min at room temperature, before proceeding with incubation with mAb supernatant/primary antibody. For staining with propidium iodide, PI was added to a final concentration of 5 μg/mL for 5 min just prior to analysis by the flow cytometer.

[2] = target: PC-9; experiment: ADCC reporter bioassay (Promega, Luciferase reporter for FcγR)
Experimental: (§1) ADCC activity was measured using a reporter bioassay (Promega; ADCC Reporter Bioassay, #G7010). The ADCC bioassay was carried out according to the manufacturer's protocol Briefly, PC-9 and A549 cells were seeded at 5,000 cells per well in a 96-well clear bottom black tissue culture plates (Corning; #3904) in low 4% IgG-serum (Promega; #G711A) media and allowed to attach and spread overnight. Serial dilutions of Hu-GR6A04 were incubated in triplicate wells for approximately 15 min at 37° C., 5% CO2. Following incubation, engineered effector cells were added to the wells at approximately 150,000 cells per well. After 6 hours, Bio-Glo™ Luciferase Assay Substrate (Promega; #G719A and #G720A) was added to the wells and luminescence was measured using the Infinite® 200 microplate reader (Tecan).

[3] = target: A549−GR6A04+; experiment: as above
Experimental: as §1

B1: GR6A04: mouse IgG1, κ anti-CEACAM6 monoclonal antibody, VH SEQ ID NO:1, VL SEQ ID NO:2, binds N-glycosylated CEACAM6 (antibody, V domains shown)
VH: SGPELVKPGASVKMSCKASGNTFTSYVMHWVKQKPGQGLEWIGYINPYNDGTKYNEKFKGKATLTSDKSSSTAYMELSSLTSEDSAVYYCARSTARATPYFYAMDYWGQGTSVTVSS
VL: DILMTQSPSSLAVTAGEKVTMRCKSSQSLLWSVNQNSYLSWYQLKQGQPPKLLLYGASIRESWVPDRFTGSGSGTDFTLTISNVHVEDLAVYYCQHNHGSFLPYTFGGGTKLEIK
modifications: Isolated antibody fragment
binding on the cell surface of normal cells [1]: < 8% | EC50 [2]: 39.6 nM | EC50 [3]: 1.33 nM
